Values quoted from earlier work in publication PMC8296985, “A Covalent Calmodulin Inhibitor as a Tool to Study Cellular Mechanisms of K-Ras-Driven Stemness” (Frontiers in Cell and Developmental Biology, 2021).

How the values were obtained:
[1] = biological target: Calmodulin (Homo sapiens) (UniProt P0DP23); experiment: fluorescence polarization
[2] = biological target: Calmodulin N-terminal lobe (Homo sapiens) (UniProt P0DP23)
[3] = biological target: Calmodulin C-terminal lobe (Homo sapiens) (UniProt P0DP23)

| Substance | Kd [1] [nM] | Kd [2] [nM] | Kd [3] [nM] |
| --- | --- | --- | --- |
| F-PMCA peptide (from UniProt P20020) | 6 | – | – |
| K-Ras (from UniProt P01116) | – | 4000 | 500 |
